T1: human B7-H3 expressed on the surface of human cancer cell lines (human, UniProt Q5ZPR3 29-534)
T1 construct: whole, on cells; also called cell surface expression B7-H3
T1 sequence (looked up): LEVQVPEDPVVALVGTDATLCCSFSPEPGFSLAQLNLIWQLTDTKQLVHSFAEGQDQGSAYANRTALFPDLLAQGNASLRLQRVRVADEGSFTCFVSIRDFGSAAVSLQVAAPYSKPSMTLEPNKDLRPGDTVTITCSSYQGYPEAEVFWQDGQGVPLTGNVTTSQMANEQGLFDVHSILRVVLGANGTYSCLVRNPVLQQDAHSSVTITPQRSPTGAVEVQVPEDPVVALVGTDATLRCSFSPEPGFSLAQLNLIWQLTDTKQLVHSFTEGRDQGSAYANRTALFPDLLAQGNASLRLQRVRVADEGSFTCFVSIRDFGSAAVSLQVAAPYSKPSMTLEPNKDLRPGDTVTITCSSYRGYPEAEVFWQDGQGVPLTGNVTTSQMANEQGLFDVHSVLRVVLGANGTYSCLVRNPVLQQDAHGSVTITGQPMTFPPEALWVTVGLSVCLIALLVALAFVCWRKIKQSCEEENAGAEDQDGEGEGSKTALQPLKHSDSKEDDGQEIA

B1: H12 (antibody, V domains shown)
VH: EVQLVESGGGLVQPGGSLRLSCAASGFTFSSYDMSWVRQAPGKSLEWVATISDAGGYIYYSDSVKGRFTISRDNAKNSLYLQMNSLRDEDTAVYICAREFGKRYALDYWGQGTTVTVSS
VL: DIQMTQSPSSLSASVGDRVTITCKASQDVTPAVAWYQQKPGKAPKLLIYSTSSRYTGVPSRFSGSGSGTDFTFTISSLQPEDIATYYCQQHYTTPLTFGQGTKLEIK
notes: Humanized anti-PD-L1 antibody; also called WT (H12); WT
B2: B6 (anti-PD-L1) (antibody, V domains shown)
VH: EVQLVESGGGLVQPGGSLRLSCAASGFTFSSYDMSWVRQAPGKSLEWVATISDAGGYIYYRDSVKGRFTISRDNAKNSLYLQMNSLRDEDTAVYICARELPWRYALDYWGQGTTVTVSS
VL: DIQMTQSPSSLSASVGDRVTITCKASQDVTPAVAWYQQKPGKAPKLLIYSTSSRYTGVPSRFSGSGSGTDFTFTISSLQPEDIATYYCQQHYTTPLTFGQGTKLEIK
notes: Engineered anti-PD-L1 clone
B3: B6xC4I(2+2) (bispecific antibody, human IgG1, kappa, N297A)
chain 1: not shown
chain 2: DIQMTQSPSSLSASVGDRVTITCKASQDVTPAVAWYQQKPGKAPKLLIYSTSSRYTGVPSRFSGSGSGTDFTFTISSLQPEDIATYYCQQHYTTPLTFGQGTKLEIKRTVAAPSVFIFPPSDEQLKSGTASVVCLLNNFYPREAKVQWKVDNALQSGNSQESVTEQDSKDSTYSLSSTLTLSKADYEKHKVYACEVTHQGLSSPVTKSFNRGEC
notes: not the 1+1 format B6xC4I; also called ABLPNB.04; B6xC4I (2+2 format)
B4: B6xB5(2+2) (bispecific antibody, human IgG1, kappa, N297A)
chain 1: not shown
chain 2: DIQMTQSPSSLSASVGDRVTITCKASQDVTPAVAWYQQKPGKAPKLLIYSTSSRYTGVPSRFSGSGSGTDFTFTISSLQPEDIATYYCQQHYTTPLTFGQGTKLEIKRTVAAPSVFIFPPSDEQLKSGTASVVCLLNNFYPREAKVQWKVDNALQSGNSQESVTEQDSKDSTYSLSSTLTLSKADYEKHKVYACEVTHQGLSSPVTKSFNRGEC
notes: also called ABLPNB.03; B6xB5 (2+2 format)
B5: ABLPNB.09: bispecific antibody comprising the anti-PD-L1 B6 clone in (HC + LC) form and the anti-B7-H3 C4I clone in scFab-Fc form (bispecific antibody, human IgG1, kappa, lambda)
heavy: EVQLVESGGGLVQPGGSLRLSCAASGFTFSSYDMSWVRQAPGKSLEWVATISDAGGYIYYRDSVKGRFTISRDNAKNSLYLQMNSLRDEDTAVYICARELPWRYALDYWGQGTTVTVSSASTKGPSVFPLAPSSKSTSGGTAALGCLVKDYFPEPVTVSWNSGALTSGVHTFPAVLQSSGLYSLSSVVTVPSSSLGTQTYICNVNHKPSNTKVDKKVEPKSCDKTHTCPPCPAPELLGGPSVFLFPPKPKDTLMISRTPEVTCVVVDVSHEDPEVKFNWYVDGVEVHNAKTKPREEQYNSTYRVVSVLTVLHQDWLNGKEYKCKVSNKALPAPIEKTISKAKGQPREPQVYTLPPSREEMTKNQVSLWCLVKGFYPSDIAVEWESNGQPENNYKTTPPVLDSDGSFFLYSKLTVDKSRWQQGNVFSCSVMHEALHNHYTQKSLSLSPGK
light: DIQMTQSPSSLSASVGDRVTITCKASQDVTPAVAWYQQKPGKAPKLLIYSTSSRYTGVPSRFSGSGSGTDFTFTISSLQPEDIATYYCQQHYTTPLTFGQGTKLEIKRTVAAPSVFIFPPSDEQLKSGTASVVCLLNNFYPREAKVQWKVDNALQSGNSQESVTEQDSKDSTYSLSSTLTLSKADYEKHKVYACEVTHQGLSSPVTKSFNRGEC
chain: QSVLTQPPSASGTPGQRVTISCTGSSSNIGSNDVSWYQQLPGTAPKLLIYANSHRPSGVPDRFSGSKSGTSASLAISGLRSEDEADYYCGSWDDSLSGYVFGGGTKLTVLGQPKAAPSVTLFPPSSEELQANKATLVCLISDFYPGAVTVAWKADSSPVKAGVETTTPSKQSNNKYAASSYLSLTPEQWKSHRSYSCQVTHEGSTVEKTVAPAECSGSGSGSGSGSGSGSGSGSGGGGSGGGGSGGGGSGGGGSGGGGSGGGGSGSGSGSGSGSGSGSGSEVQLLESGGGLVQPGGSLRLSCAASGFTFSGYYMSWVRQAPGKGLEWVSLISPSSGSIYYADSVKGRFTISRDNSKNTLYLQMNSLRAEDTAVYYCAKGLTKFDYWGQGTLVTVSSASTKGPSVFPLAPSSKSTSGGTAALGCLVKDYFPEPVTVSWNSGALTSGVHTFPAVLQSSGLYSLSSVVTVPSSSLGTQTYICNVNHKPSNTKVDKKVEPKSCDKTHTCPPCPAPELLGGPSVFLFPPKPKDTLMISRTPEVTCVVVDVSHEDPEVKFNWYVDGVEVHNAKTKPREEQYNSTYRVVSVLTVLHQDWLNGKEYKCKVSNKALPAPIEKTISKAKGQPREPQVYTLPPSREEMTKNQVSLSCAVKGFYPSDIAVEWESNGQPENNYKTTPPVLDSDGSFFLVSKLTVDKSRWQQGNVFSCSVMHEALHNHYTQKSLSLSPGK
notes: Human IgG1, knobs-into-hole; also called B6xC4I (1+1 format)

How the values were obtained:
[1] = molecular target: PD-L1 (Biacore, Example 1.6) (UniProt Q9NZQ7 19-238, limits assumed); assay: Biacore
Sequence of PD-L1 (Biacore, Example 1.6) (Q9NZQ7 19-238 limits assumed): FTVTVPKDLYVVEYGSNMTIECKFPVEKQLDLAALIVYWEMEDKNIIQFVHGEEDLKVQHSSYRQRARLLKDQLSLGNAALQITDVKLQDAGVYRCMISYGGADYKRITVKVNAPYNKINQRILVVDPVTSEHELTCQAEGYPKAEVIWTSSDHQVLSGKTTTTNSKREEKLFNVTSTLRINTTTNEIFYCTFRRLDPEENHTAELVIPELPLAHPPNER

[2] = molecular target: T2, PD-L1 expressed on RKO cells (human, UniProt Q9NZQ7 19-290); assay: FACS on RKO cells (express both B7-H3 and PD-L1), FITC anti-human IgG
T2 construct: whole, on cells; RKO cells carry both PD-L1 and B7-H3; also called PD-L1 expressed on cell surface
T2 sequence (Q9NZQ7 19-290): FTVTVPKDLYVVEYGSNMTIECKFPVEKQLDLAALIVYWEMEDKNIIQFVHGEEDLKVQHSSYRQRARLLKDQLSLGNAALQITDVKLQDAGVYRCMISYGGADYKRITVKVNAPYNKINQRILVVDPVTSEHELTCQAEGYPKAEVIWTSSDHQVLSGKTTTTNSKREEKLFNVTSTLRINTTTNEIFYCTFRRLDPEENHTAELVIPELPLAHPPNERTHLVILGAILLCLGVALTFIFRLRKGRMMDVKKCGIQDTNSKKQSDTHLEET

[3] = molecular target: T2, PD-L1 expressed on RKO cells; assay: as above; remark: listed apart in the source
[4] = molecular target: T2, PD-L1 expressed on RKO cells; assay: FACS on RKO cells (express both B7-H3 and PD-L1), FITC anti-human IgG; the signal is not split between the two targets
[5] = molecular target: T1, human B7-H3 expressed on the surface of …; assay: as above
[6] = molecular target: T2, PD-L1 expressed on RKO cells; assay: FACS on RKO cells
Experimental: (§1) To evaluate the antigen binding property, 1+1 format bispecific antibodies were analyzed for its binding to mammalian expressed both B7-H3 and PD-L1 by FACS as compared to monospecific antibodies. Briefly, RKO cells (human colon carcinoma cell line) were incubated with antibodies. After wash by FACS buffer (1% BSA in PBS), the FITC-anti-human IgG antibody was added to each well and incubated at 4° C. for 1 hour. The MFI of FITC was evaluated by FACS Caliber. The results are described in FIG. 18.

[7] = molecular target: T1, human B7-H3 expressed on the surface of …; assay: FACS on RKO cells
Experimental: as §1

Binder	Kd [1]	koff [1]	kon [1]	EC50 (read off the curve) [4]	EC50 (read off the curve) [5]	other results
B1	6.12 nM	0.000436 s⁻¹	71200 M⁻¹ s⁻¹	–	–	–
B2	4.25 nM	0.000418 s⁻¹	98300 M⁻¹ s⁻¹	–	–	EC50 (read off the curve) [2]: ~1 nM; EC50 (read off the curve) [3]: ~0.2 nM
B3	–	–	–	~1 nM	~1 nM	–
B4	–	–	–	~1 nM	~1 nM	–
B5	–	–	–	–	–	binding result [6]: binds; binding result [7]: binds

Source: patent US20230192861A1 (ABL BIO, published 2023)
